The supplement of paper PMC9732359
± gives the uncertainty stated by the source.

Experiment: protein stability index of a GFP-peptide fusion (yeast GPS) (PSI 1-4); higher = more stable; sorted into four equal gates, so the index is relative within each strain
Method in brief: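 Tiled 17-residue yeast protein peptides were fused downstream of GFP in a plasmid that also expresses Cherry, and the pooled library was carried in yeast. Mid-log cultures in leucine-free medium were sorted into four equal gates by GFP/Cherry fluorescence ratio, and plasmids from each gate were PCR-amplified and Illumina-sequenced, with reads assigned to strains by barcodes. The protein stability index for each peptide was each gate's read frequency times its gate number, summed.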

## SSPYAAMLAAQDVAAKC [RPS14B]
doa10∆
  protein stability index: 2.14 ± 0.055
pdr5∆
  protein stability index: 1.42 ± 0.055
san1∆
  protein stability index: 1.3 ± 0.082
ubr1∆
  protein stability index: 1.73 ± 0.05

## SSSPLAMSETLSKVSLL [PRE8]
doa10∆
  protein stability index: 2.53 ± 0.071
pdr5∆
  protein stability index: 2.83 ± 0.084
san1∆
  protein stability index: 2.67 ± 0.1
ubr1∆
  protein stability index: 2.32 ± 0.059

## SSVEMLLDVVKGTEASN [YDL116W/NUP84]
doa10∆
  protein stability index: 2.89 ± 0.071
pdr5∆
  protein stability index: 3.1 ± 0.091
san1∆
  protein stability index: 2.55 ± 0.052
ubr1∆
  protein stability index: 2.9 ± 0.063

## STAAAPIAAPKKPRKPR [PGD1]
doa10∆
  protein stability index: 2.72 ± 0.086
pdr5∆
  protein stability index: 3.11 ± 0.076
san1∆
  protein stability index: 2.75 ± 0.057
ubr1∆
  protein stability index: 3.15 ± 0.039

## STEETTANTGTIGKRRT [TAF14]
doa10∆
  protein stability index: 3.07 ± 0.13
pdr5∆
  protein stability index: 3.27 ± 0.1
san1∆
  protein stability index: 3.38 ± 0.088
ubr1∆
  protein stability index: 2.77 ± 0.12

## STELNNKQYELFMKSLI [SWI1]
doa10∆
  protein stability index: 3.03 ± 0.075
pdr5∆
  protein stability index: 2.94 ± 0.058
san1∆
  protein stability index: 3.16 ± 0.039
ubr1∆
  protein stability index: 2.74 ± 0.048

## STEYMMQFAKSKTVKVL [RPN6]
doa10∆
  protein stability index: 1.1 ± 0.064
pdr5∆
  protein stability index: 1.2 ± 0.073
san1∆
  protein stability index: 1.2 ± 0.2
ubr1∆
  protein stability index: 1.07 ± 0.094

## STGAADGGYNAQLAKAK [SMC2]
doa10∆
  protein stability index: 3.31 ± 0.15
pdr5∆
  protein stability index: 3.47 ± 0.11
san1∆
  protein stability index: 3.22 ± 0.084
ubr1∆
  protein stability index: 3.3 ± 0.13

## STIDANFADKYDEVKKH [RPL8A]
doa10∆
  protein stability index: 2.5 ± 0.12
pdr5∆
  protein stability index: 3.08 ± 0.11
san1∆
  protein stability index: 2.92 ± 0.081
ubr1∆
  protein stability index: 2.93 ± 0.1

## STKRVTKHPSLKTLTHK [POP7]
doa10∆
  protein stability index: 2.56 ± 0.062
pdr5∆
  protein stability index: 2.78 ± 0.06
san1∆
  protein stability index: 2.56 ± 0.083
ubr1∆
  protein stability index: 2.64 ± 0.061

## STKTGTPSDLSESGSKL [POP1]
doa10∆
  protein stability index: 3.4 ± 0.1
pdr5∆
  protein stability index: 3.35 ± 0.088
san1∆
  protein stability index: 3.24 ± 0.055
ubr1∆
  protein stability index: 3.35 ± 0.048

## STNEDQNNSKHTEDTVN [SRB5]
doa10∆
  protein stability index: 2.39 ± 0.1
pdr5∆
  protein stability index: 2.1 ± 0.077
san1∆
  protein stability index: 1.65 ± 0.1
ubr1∆
  protein stability index: 2.31 ± 0.051

## STNHPDYDVSKKASEIS [SRP14]
pdr5∆
  protein stability index: 3 ± 0.24

## STPDQRKRVYNIKFLSK [ESC2]
doa10∆
  protein stability index: 3.34 ± 0.22
san1∆
  protein stability index: 2.81 ± 0.08
ubr1∆
  protein stability index: 2.93 ± 0.12

## STPENVPRLFDLVKPKN [SMC4]
doa10∆
  protein stability index: 2.65 ± 0.077
pdr5∆
  protein stability index: 3.11 ± 0.087
san1∆
  protein stability index: 2.65 ± 0.12
ubr1∆
  protein stability index: 2.81 ± 0.053

## STPGGGSVFNMNGNTNA [YOR098C/NUP1]
doa10∆
  protein stability index: 2.87 ± 0.098
pdr5∆
  protein stability index: 3.6 ± 0.2
ubr1∆
  protein stability index: 3.15 ± 0.15

## STYKHDRGIANIRNNIE [SRB4]
doa10∆
  protein stability index: 3.41 ± 0.19
pdr5∆
  protein stability index: 3.27 ± 0.14
san1∆
  protein stability index: 2.95 ± 0.14
ubr1∆
  protein stability index: 3.49 ± 0.13

## SVAEKEEIRSQIDHFKS [SWI3]
doa10∆
  protein stability index: 1.73 ± 0.046
pdr5∆
  protein stability index: 2.42 ± 0.084
san1∆
  protein stability index: 2.8 ± 0.07
ubr1∆
  protein stability index: 2.65 ± 0.055

## SVDPQSSSTQNVFVILM [DIS3]
doa10∆
  protein stability index: 2.83 ± 0.16
pdr5∆
  protein stability index: 2.43 ± 0.17
san1∆
  protein stability index: 2.7 ± 0.075
ubr1∆
  protein stability index: 2.92 ± 0.099

## SVINVSAQRDRRYRKRN [RPS17B]
pdr5∆
  protein stability index: 3.04 ± 0.25
san1∆
  protein stability index: 3.23 ± 0.24

## SVKEDVKNNQELDQEYR [SMC4]
pdr5∆
  protein stability index: 3.53 ± 0.25
ubr1∆
  protein stability index: 3.36 ± 0.14

## SVLKDSDDKTRQLSPHT [PRE1]
doa10∆
  protein stability index: 2.56 ± 0.088
pdr5∆
  protein stability index: 2.72 ± 0.11
san1∆
  protein stability index: 2.43 ± 0.099
ubr1∆
  protein stability index: 2.52 ± 0.067

## SVMPPNEVYSAYVVNDT [DLS1]
doa10∆
  protein stability index: 2.77 ± 0.087
pdr5∆
  protein stability index: 2.95 ± 0.13
san1∆
  protein stability index: 1.89 ± 0.28
ubr1∆
  protein stability index: 3.04 ± 0.082

## SVQTFGKKKSATAVAHV [RPS16A]
doa10∆
  protein stability index: 2.37 ± 0.065
pdr5∆
  protein stability index: 2.49 ± 0.069
san1∆
  protein stability index: 2.19 ± 0.11
ubr1∆
  protein stability index: 2.1 ± 0.069

## SVRIDGRKVLQKVQGES [SIR4]
doa10∆
  protein stability index: 2.75 ± 0.089
pdr5∆
  protein stability index: 3.11 ± 0.067
san1∆
  protein stability index: 2.98 ± 0.066
ubr1∆
  protein stability index: 2.88 ± 0.064

## SVRTAVFSALKNLISRI [ECM29]
doa10∆
  protein stability index: 2.34 ± 0.049
pdr5∆
  protein stability index: 2.31 ± 0.045
san1∆
  protein stability index: 2.03 ± 0.064
ubr1∆
  protein stability index: 2.53 ± 0.035

## SVTETESISQTPISNEQ [SRP68]
doa10∆
  protein stability index: 2.89 ± 0.099
pdr5∆
  protein stability index: 3.01 ± 0.078
san1∆
  protein stability index: 2.82 ± 0.063
ubr1∆
  protein stability index: 2.96 ± 0.082

## SWNESEDTLSGYDPIVS [PRP28]
doa10∆
  protein stability index: 3.04 ± 0.12
pdr5∆
  protein stability index: 3.14 ± 0.12
san1∆
  protein stability index: 3.19 ± 0.076
ubr1∆
  protein stability index: 3.44 ± 0.06

## SYFSPINSSNEALVQAF [YCG1]
doa10∆
  protein stability index: 2.33 ± 0.063
pdr5∆
  protein stability index: 2.19 ± 0.061
san1∆
  protein stability index: 2.69 ± 0.072
ubr1∆
  protein stability index: 2.25 ± 0.042

## SYNWGAKAKRRHTTGTG [RPL37A]
doa10∆
  protein stability index: 3.37 ± 0.097
pdr5∆
  protein stability index: 3.15 ± 0.055
san1∆
  protein stability index: 3.13 ± 0.078
ubr1∆
  protein stability index: 3.34 ± 0.043

## TAAEKKERLTKEAAAIA [RPL8B]
doa10∆
  protein stability index: 2.15 ± 0.072
pdr5∆
  protein stability index: 2.25 ± 0.09
san1∆
  protein stability index: 1.91 ± 0.11
ubr1∆
  protein stability index: 2.33 ± 0.05

## TAFALGIACAGKGLQSA [RPN2]
doa10∆
  protein stability index: 1.25 ± 0.086
pdr5∆
  protein stability index: 1.33 ± 0.11
san1∆
  protein stability index: 1.3 ± 0.17
ubr1∆
  protein stability index: 1.19 ± 0.076

## TAKETKMLMNLHKEQWQ [RPN11]
doa10∆
  protein stability index: 3.28 ± 0.097
pdr5∆
  protein stability index: 3.36 ± 0.082
san1∆
  protein stability index: 3.5 ± 0.036
ubr1∆
  protein stability index: 3.42 ± 0.068

## TAKLQMRRFILGTTEGD [RPN14]
doa10∆
  protein stability index: 1.41 ± 0.27
pdr5∆
  protein stability index: 1.45 ± 0.095

## TANAKHTSSNSREIAQP [SMB1]
doa10∆
  protein stability index: 2.91 ± 0.14
pdr5∆
  protein stability index: 2.94 ± 0.099
san1∆
  protein stability index: 3.19 ± 0.07
ubr1∆
  protein stability index: 3.33 ± 0.17

## TATLAWGVNLPAHTVII [BRR2]
doa10∆
  protein stability index: 1.26 ± 0.065
pdr5∆
  protein stability index: 1.4 ± 0.067
san1∆
  protein stability index: 1.81 ± 0.089
ubr1∆
  protein stability index: 1.79 ± 0.064

## TATYNDNMSEEQWLRQF [SNF2]
doa10∆
  protein stability index: 3.28 ± 0.092
pdr5∆
  protein stability index: 3.33 ± 0.12
san1∆
  protein stability index: 3.27 ± 0.1
ubr1∆
  protein stability index: 3.5 ± 0.089

## TAVGKAAVVKTSSRQTV [RPT5]
doa10∆
  protein stability index: 3.39 ± 0.065
pdr5∆
  protein stability index: 3.23 ± 0.07
san1∆
  protein stability index: 3.28 ± 0.074
ubr1∆
  protein stability index: 3.15 ± 0.052

## TCSSDQHIKVFKLDKDT [YGL100W/SEH1]
doa10∆
  protein stability index: 3 ± 0.098
pdr5∆
  protein stability index: 3.07 ± 0.087
san1∆
  protein stability index: 3.46 ± 0.087
ubr1∆
  protein stability index: 3.43 ± 0.097

## TCVSMAPIQLKIDLLSG [RGR1]
doa10∆
  protein stability index: 1.67 ± 0.046
pdr5∆
  protein stability index: 1.84 ± 0.062
san1∆
  protein stability index: 1.87 ± 0.081
ubr1∆
  protein stability index: 2 ± 0.038

## TDAHTPLARNYIKSMDL [RPR2]
doa10∆
  protein stability index: 2.67 ± 0.044
pdr5∆
  protein stability index: 2.73 ± 0.044
san1∆
  protein stability index: 2.68 ± 0.041
ubr1∆
  protein stability index: 2.86 ± 0.032

## TDCKFIRVSGAELVQKY [RPT6]
doa10∆
  protein stability index: 3.01 ± 0.14
pdr5∆
  protein stability index: 3.24 ± 0.16
san1∆
  protein stability index: 3.16 ± 0.15
ubr1∆
  protein stability index: 2.93 ± 0.11

## TDDYFEELRDLYQTYHV [FAS1]
doa10∆
  protein stability index: 3.09 ± 0.22
pdr5∆
  protein stability index: 2.69 ± 0.076
san1∆
  protein stability index: 3.33 ± 0.15
ubr1∆
  protein stability index: 3.37 ± 0.11

## TDIEEGMRVGVDRSKYN [RPT1]
doa10∆
  protein stability index: 3.13 ± 0.14
pdr5∆
  protein stability index: 3.34 ± 0.27
san1∆
  protein stability index: 3.07 ± 0.1
ubr1∆
  protein stability index: 3.13 ± 0.15

## TDLESKSRMINFLDAPG [SNU114]
doa10∆
  protein stability index: 2.65 ± 0.078
pdr5∆
  protein stability index: 2.95 ± 0.094
san1∆
  protein stability index: 2.71 ± 0.067
ubr1∆
  protein stability index: 2.8 ± 0.047

## TDLNQDSAAIIAATGLN [GRR1]
doa10∆
  protein stability index: 1.62 ± 0.17
pdr5∆
  protein stability index: 1.32 ± 0.1
san1∆
  protein stability index: 1.43 ± 0.22
ubr1∆
  protein stability index: 1.55 ± 0.097

## TDQLIQNIETRQLANLI [NUT1]
doa10∆
  protein stability index: 3.15 ± 0.11
pdr5∆
  protein stability index: 3.14 ± 0.12
san1∆
  protein stability index: 2.94 ± 0.13
ubr1∆
  protein stability index: 3.01 ± 0.051

## TDSRTGQSTILVGSEIY [CDC53]
doa10∆
  protein stability index: 2.77 ± 0.056
pdr5∆
  protein stability index: 2.64 ± 0.066
san1∆
  protein stability index: 2.94 ± 0.051
ubr1∆
  protein stability index: 2.87 ± 0.065

## TDWDPQFNAITGLNGSG [SMC2]
doa10∆
  protein stability index: 2.94 ± 0.19
san1∆
  protein stability index: 2.3 ± 0.19

## TDYFLPKNYSLHGLRSF [YJL039C/NUP192]
doa10∆
  protein stability index: 1.96 ± 0.061
pdr5∆
  protein stability index: 2.13 ± 0.065
san1∆
  protein stability index: 2.12 ± 0.055
ubr1∆
  protein stability index: 2.11 ± 0.064

## TEAEETSIHSTISILAA [RRP43]
doa10∆
  protein stability index: 1.28 ± 0.043
pdr5∆
  protein stability index: 1.63 ± 0.045
san1∆
  protein stability index: 1.77 ± 0.068
ubr1∆
  protein stability index: 1.37 ± 0.035

## TEAVTQLIGSNIELHSL [PUP1]
doa10∆
  protein stability index: 3.29 ± 0.2
pdr5∆
  protein stability index: 3.23 ± 0.12
san1∆
  protein stability index: 3.44 ± 0.11
ubr1∆
  protein stability index: 2.96 ± 0.13

## TEENIKGETNSEISIID [RRP45]
doa10∆
  protein stability index: 2.96 ± 0.07
pdr5∆
  protein stability index: 3.16 ± 0.064
san1∆
  protein stability index: 3.3 ± 0.055
ubr1∆
  protein stability index: 3.22 ± 0.053

## TEEVEALLQRLKTNGKQ [MTW1]
ubr1∆
  protein stability index: 3.23 ± 0.21

## TEGEPKKKRGFLGLFGR [SRP68]
doa10∆
  protein stability index: 3.17 ± 0.094
pdr5∆
  protein stability index: 3.46 ± 0.093
san1∆
  protein stability index: 2.92 ± 0.068
ubr1∆
  protein stability index: 3.01 ± 0.06
